According to patent publication US20250129150A1 (APOGEE THERAPEUTICS, published 2025):

Biological target: hIL-13 (human, UniProt P35225 35-146, limits assumed)
Experiment: cell-based or functional assay

Sequence of hIL-13 (P35225 other isoform, or with tags, fused parts or gaps limits assumed): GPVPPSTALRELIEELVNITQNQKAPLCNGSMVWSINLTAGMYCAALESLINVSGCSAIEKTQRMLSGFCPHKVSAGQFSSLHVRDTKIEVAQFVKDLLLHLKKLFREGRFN

Row | Binder | TARC Release IC50 (A549 cells) [nM]
1 | Construct 96 (antibody, human IgG1, kappa, V domains shown) VH: EVQLLESGGGLVQPGGSLRLSCAASGFSLNAYSVNWVRQAPGKGLEWLGMIWGDGKIVYNSALKSRLTISKDSSKNTVYLQMNSLRAEDTAVYYCAGDGYYPYAMDNWGQGTTVTVSS VL: DIQLTQSPSSLSASVGDRVTITCRASKSVDSYGNSFMHWYQQKPGKAPKLLIYLASDLESGVPSRFSGSGSGTDFTLTISSLQPEDFATYYCQQNNEDPRTFGGGTKVEIKR | 1
2 | Construct 107 (antibody, human IgG1, kappa, V domains shown) VH: EVQLLESGGGLVQPGGSLRLSCAASGFSLHAYSVNWVRQAPGKGLEWLGMIWGDGKIVYNSALKSRLTISKDSSKNTVYLQMNSLRAEDTAVYYCAGDGYYPYAMDNWGQGTTVTVSS VL: DIQLTQSPSSLSASVGDRVTITCRASKSVDSYGNSFMHWYQQKPGKAPKLLIYLASNLESGVPSRFSGSGSGTDFTLTISSLQPEDFATYYCQQNNEDPRTFGGGTKVEIKR | 1.3
3 | Construct 110 (antibody, human IgG1, kappa, V domains shown) VH: EVQLLESGGGLVQPGGSLRLSCAASGFSLSAYSVNWVRQAPGKGLEWLGMIWGDGKIVYNSALKSRLTISKDSSKNTVYLQMNSLRAEDTAVYYCAGDGYYPYAMDNWGQGTTVTVSS VL: DIQLTQSPSSLSASVGDRVTITCRASKSVDSYGNSFMHWYQQKPGKAPKLLIYLASNLESGVPSRFSGSGSGTDFTLTISSLQPEDFATYYCQQNNEDPRTFGGGTKVEIKR | 1
4 | Construct 114 (antibody, human IgG1, kappa, V domains shown) VH: EVQLLESGGGLVQPGGSLRLSCAASGFSLNQYSVNWVRQAPGKGLEWLGMIWGDGKIVYNSALKSRLTISKDSSKNTVYLQMNSLRAEDTAVYYCAGDGYYPYAMDNWGQGTTVTVSS VL: DIQLTQSPSSLSASVGDRVTITCRASKSVDSYGNSFMHWYQQKPGKAPKLLIYLASNLESGVPSRFSGSGSGTDFTLTISSLQPEDFATYYCQQNNEDPRTFGGGTKVEIKR | 1.1

Results, then the binder that gave them:

Row | TARC Release IC50 (A549 cells) [nM] | Binder
5 | 0.9 | Construct 98 (antibody, human IgG1, kappa) heavy: EVQLLESGGGLVQPGGSLRLSCAASGFSLNAYSVNWVRQAPGKGLEWLGMIWGDGKIVYNSALKSRLTISKDSSKNTVYLQMNSLRAEDTAVYYCAGDGYYPYAMDNWGQGTTVTVSSASTKGPSVFPLAPSSKSTSGGTAALGCLVKDYFPEPVTVSWNSGALTSGVHTFPAVLQSSGLYSLSSVVTVPSSSLGTQTYICNVNHKPSNTKVDKKVEPKSCDKTHTCPPCPAPELAGAPSVFLFPPKPKDTLYITREPEVTCVVVDVSHEDPEVKFNWYVDGVEVHNAKTKPREEQYNSTYRVVSVLTVLHQDWLNGKEYKCKVSNKALPAPIEKTISKAKGQPREPQVYTLPPSRDELTKNQVSLTCLVKGFYPSDIAVEWESNGQPENNYKTTPPVLDSDGSFFLYSKLTVDKSRWQQGNVFSCSVMHEALHNHYTQKSLSLSPG light: DIQLTQSPSSLSASVGDRVTITCRASKSVDSYGNSFMHWYQQKPGKAPKLLIYLASELESGVPSRFSGSGSGTDFTLTISSLQPEDFATYYCQQNNEDPRTFGGGTKVEIKRTVAAPSVFIFPPSDEQLKSGTASVVCLLNNFYPREAKVQWKVDNALQSGNSQESVTEQDSKDSTYSLSSTLTLSKADYEKHKVYACEVTHQGLSSPVTKSFNRGEC
6 | 1 | Construct 108 (antibody, human IgG1, kappa, V domains shown) VH: EVQLLESGGGLVQPGGSLRLSCAASGFSLDAYSVNWVRQAPGKGLEWLGMIWGDGKIVYNSALKSRLTISKDSSKNTVYLQMNSLRAEDTAVYYCAGDGYYPYAMDNWGQGTTVTVSS VL: DIQLTQSPSSLSASVGDRVTITCRASKSVDSYGNSFMHWYQQKPGKAPKLLIYLASNLESGVPSRFSGSGSGTDFTLTISSLQPEDFATYYCQQNNEDPRTFGGGTKVEIKR
